Our source for the Kd, koff and kon values is publication PMC3295763 (PLoS ONE, 2012).

For the assay, the target named is S-layer protein EA1 (Bacillus anthracis Sterne, UniProt P94217). The assay is described as follows: SPR; […] (5 µg/ml in 10 mM sodium acetate pH 4.0); […], dissociation 10 min; […]. The settings on record: both partners purified. A general note: In SPR one partner is held on a chip, and binding of the other changes the refractive index at the surface.

B1: sdAb C7 (VHH)
VHH: EVQLQASGGGLVQPGGSLNLSCAASGEILSFNSMGWYRQAPGKQCELVAVILSGFSPNYADSVKGRFTISRDGAKNTVFLRMNRLKPEDTADYYCAARFYGAIRDEQSVNYWGQGTRVTVSS
notes: source: E. coli Rosetta, periplasmic (pECAN45), purified (IMAC, Superdex 75)
What is called Kd is the equilibrium constant for the complex coming apart. A high value points to weaker binding. A word on the koff: it is a measure of how fast the partners let go of each other. A high value points to fast dissociation. Usually kon stands for the rate constant with which the complex forms. Low readings indicate slower complex formation, high ones faster complex formation. Consider B1, for which binding was put at a Kd of 1.57 nM, the koff turned out to be 0.000248 s⁻¹ and the on-rate constant (kon) amounted to 158000 M⁻¹ s⁻¹.

B2: sdAb B12 (VHH)
VHH: DVQLQASGGGLAQPGGSLRLSCVASGSVSRLSRMGWYRQAPGKQRELVAYIWHDGDNSYMDSVKGRFTISRDNARDTAYLQMNSLKPEDTAVYYCNYYRVGSGDSWGQGIQVIVSS
notes: as for B1
B2 returned a dissociation constant Kd of 6.18 nM, a dissociation rate constant (koff) of 0.0015 s⁻¹ and a kon of 242000 M⁻¹ s⁻¹.

B3: sdAb B2 (VHH)
VHH: EVQLQASGGGLVQAGGSLRLSCAASGHINIHYAMGWFRRAPGKEREFVAAVTWSGASTYYADSVKGRFTISRDNGGNTMFLQLDSLKPEDTATYYCAAQGALGRLTSASGYDYWGQGTQVTVSS
notes: as for B1
As for B3, binding was put at a Kd of 6.17 nM, the dissociation rate constant (koff) worked out at 0.00037 s⁻¹ and the kon amounted to 60000 M⁻¹ s⁻¹.

B4: sdAb G10 (VHH)
VHH: DVQLQASGGGLVQPGGSLKLSCVASGSTFSPDMMRWYRQAPGKQRDLVAWISTSGFTMYADSVKGRFTISRDNAKNTVYLQMNSLKPEDAAVYYCNANRFSGPDYWGQGMQVSVSS
notes: as for B1
The molecule B4 gave a Kd of 2.04 nM, a koff of 0.000166 s⁻¹ and a kon of 81100 M⁻¹ s⁻¹.

B5: sdAb A1 (VHH)
VHH: DVQLQASGGGLVQAGGSLELSCVVVGESIIDYQMAWFRQMVGREREFVAAITGDSHYSDYSASASGRFTISRDNAKKTVSLQMNHLKPEDTALYYCAARKGFGINRLSTAFDYWGHGTQVTVSS
notes: as for B1
Molecule B5 registered a dissociation constant (Kd) of 0.305 nM, a dissociation rate constant (koff) of 0.000233 s⁻¹ and an on-rate constant (kon) of 766000 M⁻¹ s⁻¹.
